# B1: E3 ubiquitin-protein ligase RNF185 (Homo sapiens), Q96GF1 (parent)
# chain: MASKGPSASASPENSSAGGPSGSSNGAGESGGQDSTFECNICLDTAKDAVISLCGHLFCWPCLHQWLETRPNRQVCPVCKAGISRDKVIPLYGRGSTGQQDPREKTPPRPQGQRPEPENRGGFQGFGFGDGGFQMSFGIGAFPFGIFATAFNINDGRPPPAVPGTPQYVDEQFLSRLFLFVALVIMFWLLIA
# B2: Activated CDC42 kinase 1 (Homo sapiens), Q07912-2 (parent)
# chain: MQPEEGTGWLLELLSEVQLQQYFLRLRDDLNVTRLSHFEYVKNEDLEKIGMGRPGQRRLWEAVKRRKALCKRKSWMSKVFSGKRLEAEFPPHHSQSTFRKTSPAPGGPAGEGPLQSLTCLIGEKDLRLLEKLGDGSFGVVRRGEWDAPSGKTVSVAVKCLKPDVLSQPEAMDDFIREVNAMHSLDHRNLIRLYGVVLTPPMKMVTELAPLGSLLDRLRKHQGHFLLGTLSRYAVQVAEGMGYLESKRFIHRDLAARNLLLATRDLVKIGDFGLMRALPQNDDHYVMQEHRKVPFAWCAPESLKTRTFSHASDTWMFGVTLWEMFTYGQEPWIGLNGSQILHKIDKEGERLPRPEDCPQDIYNVMVQCWAHKPEDRPTFVALRDFLLEAQPTDMRALQDFEEPDKLHIQMNDVITVIEGRAENYWWRGQNTRTLCVGPFPRNVVTSVAGLSAQDISQPLQNSFIHTGHGDSDPRHCWGFPDRIDECPFSAFSPGHPPAETCGQVLWTGRREACASDPRLHPVSSRTKGL
# partner: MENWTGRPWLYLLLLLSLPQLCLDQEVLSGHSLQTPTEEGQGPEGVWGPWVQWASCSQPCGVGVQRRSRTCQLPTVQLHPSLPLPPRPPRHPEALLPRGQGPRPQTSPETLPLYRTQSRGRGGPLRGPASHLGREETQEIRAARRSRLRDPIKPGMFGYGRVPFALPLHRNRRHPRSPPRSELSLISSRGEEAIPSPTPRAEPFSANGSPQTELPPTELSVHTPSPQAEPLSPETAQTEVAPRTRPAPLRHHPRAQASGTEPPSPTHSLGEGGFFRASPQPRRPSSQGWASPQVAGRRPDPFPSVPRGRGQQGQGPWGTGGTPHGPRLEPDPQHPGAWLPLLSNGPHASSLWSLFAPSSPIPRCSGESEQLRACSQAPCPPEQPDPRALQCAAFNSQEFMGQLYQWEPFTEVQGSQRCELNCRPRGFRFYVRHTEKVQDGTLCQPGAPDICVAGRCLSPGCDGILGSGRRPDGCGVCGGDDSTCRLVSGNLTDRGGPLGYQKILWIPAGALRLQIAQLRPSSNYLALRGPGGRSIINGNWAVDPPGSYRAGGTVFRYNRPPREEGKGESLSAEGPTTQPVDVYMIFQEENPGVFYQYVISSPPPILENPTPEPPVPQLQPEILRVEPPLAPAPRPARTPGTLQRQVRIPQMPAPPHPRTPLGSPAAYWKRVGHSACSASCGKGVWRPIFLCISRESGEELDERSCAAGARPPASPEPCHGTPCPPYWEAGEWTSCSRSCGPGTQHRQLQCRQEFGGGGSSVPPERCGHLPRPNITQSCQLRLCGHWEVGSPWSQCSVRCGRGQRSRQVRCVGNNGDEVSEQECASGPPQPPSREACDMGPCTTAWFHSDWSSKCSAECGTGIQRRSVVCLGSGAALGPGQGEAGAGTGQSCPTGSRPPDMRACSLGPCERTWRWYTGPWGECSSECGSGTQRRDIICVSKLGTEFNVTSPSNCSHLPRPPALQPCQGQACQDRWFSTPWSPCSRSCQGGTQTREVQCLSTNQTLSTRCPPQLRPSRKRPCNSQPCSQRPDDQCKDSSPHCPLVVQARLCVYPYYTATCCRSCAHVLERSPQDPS
# B3: Probable RNA-binding protein EIF1AD (Homo sapiens), Q8N9N8 (parent)
# chain: MSQATKRKHVVKEVLGEHIVPSDQQQIVRVLRTPGNNLHEVETAQGQRFLVSMPSKYRKNIWIKRGDFLIVDPIEEGEKVKAEISFVLCKDHVRSLQKEGFWPEAFSEVAEKHNNRNRQTQPELPAEPQLSGEESSSEDDSDLFVNTNRRQYHESEEESEEEEAA
# B4: Huntingtin-interacting protein 1 (Homo sapiens), O00291 (parent)
# chain: MDRMASSMKQVPNPLPKVLSRRGVGAGLEAAERESFERTQTVSINKAINTQEVAVKEKHARTCILGTHHEKGAQTFWSVVNRLPLSSNAVLCWKFCHVFHKLLRDGHPNVLKDSLRYRNELSDMSRMWGHLSEGYGQLCSIYLKLLRTKMEYHTKNPRFPGNLQMSDRQLDEAGESDVNNFFQLTVEMFDYLECELNLFQTVFNSLDMSRSVSVTAAGQCRLAPLIQVILDCSHLYDYTVKLLFKLHSCLPADTLQGHRDRFMEQFTKLKDLFYRSSNLQYFKRLIQIPQLPENPPNFLRASALSEHISPVVVIPAEASSPDSEPVLEKDDLMDMDASQQNLFDNKFDDIFGSSFSSDPFNFNSQNGVNKDEKDHLIERLYREISGLKAQLENMKTESQRVVLQLKGHVSELEADLAEQQHLRQQAADDCEFLRAELDELRRQREDTEKAQRSLSEIERKAQANEQRYSKLKEKYSELVQNHADLLRKNAEVTKQVSMARQAQVDLEREKKELEDSLERISDQGQRKTQEQLEVLESLKQELATSQRELQVLQGSLETSAQSEANWAAEFAELEKERDSLVSGAAHREEELSALRKELQDTQLKLASTEESMCQLAKDQRKMLLVGSRKAAEQVIQDALNQLEEPPLISCAGSADHLLSTVTSISSCIEQLEKSWSQYLACPEDISGLLHSITLLAHLTSDAIAHGATTCLRAPPEPADSLTEACKQYGRETLAYLASLEEEGSLENADSTAMRNCLSKIKAIGEELLPRGLDIKQEELGDLVDKEMAATSAAIETATARIEEMLSKSRAGDTGVKLEVNERILGCCTSLMQAIQVLIVASKDLQREIVESGRGTASPKEFYAKNSRWTEGLISASKAVGWGATVMVDAADLVVQGRGKFEELMVCSHEIAASTAQLVAASKVKADKDSPNLAQLQQASRGVNQATAGVVASTISGKSQIEETDNMDFSSMTLTQIKRQEMDSQVRVLELENELQKERQKLGELRKKHYELAGVAEGWEEGTEASPPTLQEVVTEKE
# partner: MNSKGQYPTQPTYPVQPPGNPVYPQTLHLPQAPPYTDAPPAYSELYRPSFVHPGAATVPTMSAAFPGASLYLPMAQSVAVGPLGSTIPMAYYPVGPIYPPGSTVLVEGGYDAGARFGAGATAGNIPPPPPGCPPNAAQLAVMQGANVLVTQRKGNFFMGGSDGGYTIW
# B5: Acylamino-acid-releasing enzyme (Homo sapiens), P13798 (parent)
# chain: MERQVLLSEPEEAAALYRGLSRQPALSAACLGPEVTTQYGGQYRTVHTEWTQRDLERMENIRFCRQYLVFHDGDSVVFAGPAGNSVETRGELLSRESPSGTMKAVLRKAGGTGPGEEKQFLEVWEKNRKLKSFNLSALEKHGPVYEDDCFGCLSWSHSETHLLYVAEKKRPKAESFFQTKALDVSASDDEIARLKKPDQAIKGDQFVFYEDWGENMVSKSIPVLCVLDVESGNISVLEGVPENVSPGQAFWAPGDAGVVFVGWWHEPFRLGIRFCTNRRSALYYVDLIGGKCELLSDDSLAVSSPRLSPDQCRIVYLQYPSLIPHHQCSQLCLYDWYTKVTSVVVDVVPRQLGENFSGIYCSLLPLGCWSADSQRVVFDSAQRSRQDLFAVDTQVGTVTSLTAGGSGGSWKLLTIDQDLMVAQFSTPSLPPTLKVGFLPSAGKEQSVLWVSLEEAEPIPDIHWGIRVLQPPPEQENVQYAGLDFEAILLQPGSPPDKTQVPMVVMPHGGPHSSFVTAWMLFPAMLCKMGFAVLLVNYRGSTGFGQDSILSLPGNVGHQDVKDVQFAVEQVLQEEHFDASHVALMGGSHGGFISCHLIGQYPETYRACVARNPVINIASMLGSTDIPDWCVVEAGFPFSSDCLPDLSVWAEMLDKSPIRYIPQVKTPLLLMLGQEDRRVPFKQGMEYYRALKTRNVPVRLLLYPKSTHALSEVEVESDSFMNAVLWLRTHLGS
# Variants of: B1
# Settings: with ub2e3_human UBE2E3, Q969T4
# ub2e3_human UBE2E3, Q969T4, sequence (Q969T4 whole entry): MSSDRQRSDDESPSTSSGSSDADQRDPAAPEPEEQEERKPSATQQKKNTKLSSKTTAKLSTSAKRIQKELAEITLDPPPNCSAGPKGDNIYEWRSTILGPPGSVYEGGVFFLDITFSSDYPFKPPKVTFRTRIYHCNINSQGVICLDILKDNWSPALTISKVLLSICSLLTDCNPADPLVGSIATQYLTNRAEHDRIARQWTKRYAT
row,Variant,effect of a mutation on the interaction
1,A17T,with no effect

# Variants of: B2
# Settings: with atl4_human ADAMTSL4, Q6UY14
row,Variant,effect of a mutation on the interaction
1,R34L,with no effect

# Variants of: B3
# Settings: with tbcd5_human TBC1D5, Q92609
# tbcd5_human TBC1D5, Q92609, sequence (Q92609 whole entry): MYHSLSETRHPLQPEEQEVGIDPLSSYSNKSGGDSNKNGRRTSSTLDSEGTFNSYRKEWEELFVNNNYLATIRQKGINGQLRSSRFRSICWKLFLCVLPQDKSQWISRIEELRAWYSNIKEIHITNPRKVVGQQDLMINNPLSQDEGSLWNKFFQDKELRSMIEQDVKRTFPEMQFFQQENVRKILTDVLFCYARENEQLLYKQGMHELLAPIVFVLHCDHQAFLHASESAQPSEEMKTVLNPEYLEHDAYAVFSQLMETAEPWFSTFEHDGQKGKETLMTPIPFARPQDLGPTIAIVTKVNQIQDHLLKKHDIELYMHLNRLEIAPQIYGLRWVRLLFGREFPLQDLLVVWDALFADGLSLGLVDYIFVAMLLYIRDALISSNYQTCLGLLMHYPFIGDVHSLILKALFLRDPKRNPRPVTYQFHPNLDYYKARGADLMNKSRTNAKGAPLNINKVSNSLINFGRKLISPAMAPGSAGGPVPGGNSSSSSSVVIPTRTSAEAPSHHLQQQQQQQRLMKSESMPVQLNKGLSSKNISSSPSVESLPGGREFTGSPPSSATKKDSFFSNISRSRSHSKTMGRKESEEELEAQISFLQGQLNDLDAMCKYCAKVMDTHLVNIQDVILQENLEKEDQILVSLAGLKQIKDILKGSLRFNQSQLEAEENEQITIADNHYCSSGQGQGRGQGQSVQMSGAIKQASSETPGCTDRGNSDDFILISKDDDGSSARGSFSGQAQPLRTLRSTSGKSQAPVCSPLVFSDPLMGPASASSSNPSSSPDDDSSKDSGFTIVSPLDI
row,Variant,effect of a mutation on the interaction
1,R48C,with no effect

# Variants of: B4
# Settings: with dazp2_human DAZAP2, Q15038
row,Variant,effect of a mutation on the interaction
1,M263K,with no effect

# Variants of: B5
# Settings: with leg8_human LGALS8, O00214
# leg8_human LGALS8, O00214, sequence (O00214 whole entry): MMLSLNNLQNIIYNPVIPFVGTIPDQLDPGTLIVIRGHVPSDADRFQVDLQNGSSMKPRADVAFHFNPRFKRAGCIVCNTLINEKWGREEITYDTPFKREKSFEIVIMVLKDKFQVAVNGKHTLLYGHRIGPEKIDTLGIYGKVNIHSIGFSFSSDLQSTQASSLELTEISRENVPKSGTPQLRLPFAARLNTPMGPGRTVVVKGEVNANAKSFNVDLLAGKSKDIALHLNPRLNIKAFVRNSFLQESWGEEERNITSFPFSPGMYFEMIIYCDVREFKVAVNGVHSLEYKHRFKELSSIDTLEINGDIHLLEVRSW
row,Variant,effect of a mutation on the interaction
1,F378S,disrupting interaction strength
